We go through seven molecules from patent US9688764B2, “Methods of treating breast cancer by administering anti-human prolactin receptor (PRLR) antibodies” (REGENERON PHARMACEUTICALS, INC., priority 2013, dated 2017).

Where two headings read alike, the source gives them in different places.

Data set [1] relates to PC3/hPRLR cells. Nature of the data set: Cell viability (cell kill) assay. In kind it is cell-based, human. From the text: (§1) PRLR-overexpressing cells, including HEK293, PC3, MCF7 and NCI-N87, were generated to assess the ability of anti-PRLR conjugated antibodies to reduce cell viability. For comparative purposes, PC3 and T47D cells with overexpressed ErbB2 were also generated, as well as an MCF7 cell line over-expressing both hPRLR and hErbB2. Briefly, Lipofectamine® 2000-mediated transfection methodology was utilized to generate HEK293 cells expressing human PRLR (HEK293/hPRLR) or human ErbB2 (HEK293/hErbB2). Lipofectamine LTX with Plus Reagent was used to generate PC3 cells expressing human PRLR (PC3/hPRLR) or human ErbB2 (PC3/hErbB2). Lentiviral-mediated transduction was utilized to generate MCF7 cells expressing human PRLR (MCF7/hPRLR), NCI-N87 cells expressing human PRLR (NCI-N87/hPRLR), T47D cells over-expressing human ErbB2 (T47D/hErbB2), and MCF7 cells expressing both human PRLR and human ErbB2 (MCF7/hPRLR/hErbB2). All lines were selected for at least two weeks in complete growth media plus appropriate selection reagents. Stably expressing populations were enriched for PRLR expression via FACS using the anti PRLR antibody Control I.
(§2) Next, the ability of anti-PRLR-DM1 antibody-drug conjugates (i.e., anti-PRLR antibodies conjugated to DM1 via a non-cleavable linker [SMCC]) to reduce cell viability was determined using in vitro cell based assays. Cells were seeded in PDL-coated 96 well plates at 1500 to 10000 cells per well in complete growth media and allowed to grow overnight. For cell viability curves, ADCs or free DM1 (as the methyl disulfide derivative DM1-SMe) were added to the cells at final concentrations ranging from 500 nM to 5 pM and incubated for 3 days. The 293, PC3 and T47D cells were incubated with CCK8 (Dojindo, Rockville, Md.) for the final 1-3 hours and the absorbance at 450 nm (OD450) was determined on a Flexstation3 (Molecular Devices, Sunnyvale, Calif.). MCF7 cells were treated with Hoechst 33342 nuclear stain while being fixed with 4% formaldehyde. Images were acquired on the ImageXpress micro XL (Molecular Devices, Sunnyvale, Calif.) and nuclear counts were determined via Columbus image analysis software (Perkin Elmer, Shelton, Conn.). Background OD450 values (PC3, 293, and T47D) or nuclear counts (MCF7) from digitonin (40 nM) treated cells was subtracted from all wells and viability was expressed as a percentage of the untreated controls. IC50 values were determined from a four-parameter logistic equation over a 10-point response curve (GraphPad Prism).
(§3) Finally, the potency of anti-PRLR antibodies conjugated to DM1 via the non-cleavable linker SMCC was compared to the cell killing potency of anti-PRLR antibodies conjugated to MMAE via the cleavable linker: mc-vc-PAB (available from Concortis, San Diego, Calif.). Cells used in this experiment were PC3, PC3/hPRLR, MCF7/ATCC and MCF7/PRLR.

The subject of data set [2] is MCF7 (MCF7/ATCC) cells. Nature of the data set: Cell viability (cell kill) assay, nuclear counts. In kind it is cell-based.
Source text: as §1, §2, §3
(§4) Additional toxins (DM4, MeNHC3-May, and MMD) conjugated to anti-PRLR antibodies were also tested in T47D and MCF7/hPRLR cell lines, and results are summarized in Tables 19 (293 and T47D cell killing) and 20 (MCF7/ATCC and MCF7/PRLR cell killing). (ND=not detected).

The subject of data set [3] is MCF7/hPRLR (MCF7/PRLR) cells. Nature of the data set: Cell viability (cell kill) assay, nuclear counts. In kind it is cell-based, human.
Source text: as §1, §2, §3, §4

The subject of data set [4] is PC3 cells. The experiment in a line: Cell viability (cell kill) assay. In kind it is cell-based. Conditions: Table 18.
Source text: as §1, §2, §3

The test system of data set [5] is T47D cells. Nature of the data set: Cell viability (cell kill) assay. In kind it is cell-based. Conditions: T47D; for IC50: read-out: IC50. The protocol:
as §2
Additionally, the impact of the PRLR ligand, PRL, on PRLR-SMCC-DM1 cell kill in T47D cells was assessed. T47D cells were incubated simultaneously with PRL (15 nM) and either a non-blocking anti PRLR antibody (H1H6782P) or a receptor blocking antibody (H1H6958N2).
as §4

Data set [6] can be described thus: Conjugate characterization: protein and linker/payload concentrations, payload loading (UV, MALDI-TOF, SEC-HPLC, RP-HPLC). Conditions: Anti-PRLR-SMCC-DM1 conjugates; Table 9. In kind it is physicochemical. An excerpt: Selected anti-PRLR antibodies were conjugated to the maytansinoid DM1 through an SMCC linker using methods similar to those set forth in U.S. Pat. No. 5,208,020 and US Patent Application Publication No. 2010/0129314, the disclosures of which are incorporated by reference herein in their entireties. The conjugates were purified by size exclusion chromatography and sterile filtered. All starting materials and solvents were purchased commercially and used without purification, unless otherwise noted.
Protein and linker/payload concentrations were determined by UV spectral analysis and MALDI-TOF mass spectrometry. Size-exclusion HPLC established that all conjugates used were >95% monomeric, and RP-HPLC established that there was <0.5% unconjugated linker payload. Yields are reported in Table 8 and 9 based on protein. All conjugated antibodies were analyzed by UV for linker payload loading values according to Hamblett et al, 2004, Clinical Cancer Research 10(20):7063-7070, and by mass difference, native versus conjugated.

Data set [7] concerns HEK293 (293) cells. The experiment in a line: Cell viability (cell kill) assay. In kind it is cell-based. The settings on record: 293.
Source text: as §1, §2

B1: H1H6958N2-mc-VC-PAB-MMAE (conjugate)
VH: QVQLVESGGGVVQPGRSLRLSCGASGFTFRNYGMQWVRQGPGKGLEWVTLISFDGNDKYYADSVKGRFTISRDNSKNTLFLQMNSLRTEDTAVYYCARGGDFDYWGQGTLVTVSS
VL: DIQMTQSPSSLSASVGDRVTITCRASQDIRKDLGWYQQKPGKAPKRLIYAASSLHSGVPSRFSGSGSGTEFTLTISSLQPEDFATYYCLQHNSYPMYTFGQGTKLEIK
In the case of B1, the “% Kill” value in data set [1] (PC3/hPRLR, Table 18) was 82%; in data set [2] (MCF7/ATCC, Table 18) it was 53%; in data set [2] (MCF7/ATCC, Table 20), 50%; in data set [3] (Table 18), 88%; in data set [3] (Table 20), 90%; in data set [5] (Table 19), 90%. Further, the IC50 – broadly, the concentration that gives 50% inhibition – was 0.5 nM in data set [1] (PC3/hPRLR, Table 18); 150 nM in data set [2] (MCF7/ATCC, Table 18); 150 nM in data set [2] (MCF7/ATCC, Table 20); 0.2 nM in data set [3] (Table 18); 0.2 nM in data set [3] (Table 20); 100 nM in data set [4]. In data set [5] (Table 19), the IC50 came out at 1 nM.

B2: H1H6793P-DM1 (conjugate)
VH: EVQLVESGGGLVQPGGSLRLSCAASGFSFSIYAMSWFRQAPGKGLEWVSAINGRGDGTHYADSVKGRFTISRDNSKTTLYLQMSSLRAEDTAVYYCAKPVMSTNGFDIWGQGTMVTVSS
VL: DIQMTQSPSTLSASVGDRVTITCRASQSISSWLAWYQLKPGKAPKLLIYKASNLESGVPSRFSGSGSGTEFTLTISSLQPDDFATYYCQQYNIYWTFGQGTKVEIK
For B2, the “% Kill” value in data set [1] (PC3/PRLR, Table 11, 3 days) was 65%; in data set [2] (MCF7, Table 12, 3 days), 67%; in data set [3] (Table 12, 3 days), 87%; in data set [5] (Table 12, 3 days) it was 53%. Further, the IC50 came out at 3.65 nM in data set [1] (PC3/PRLR, Table 11, 3 days); 125 nM in data set [2] (MCF7, Table 12, 3 days); 0.54 nM in data set [3] (Table 12, 3 days); 11.1 nM in data set [5] (Table 12, 3 days). In data set [6], the “Payload:Antibody Molar Ratio (MS)” value was 3.8.

B3: H1H6765P-SMCC-DM1 (conjugate)
VH: EVQLVESGGGVVRPGGSLRLSCVGSGFSFDDHGMNWVRQGPGKGLEWVSGFNWNGGSTNYAESVKGRFTISRDNARNSLFLQMNSLRAEDTALYYCVRGRSGWFNDAFDVWGPGTMVTVSS
VL: EIVLTQSPGTLSLSPGERATLSCRASQTINSNYLAWYRQKPGQTPRLLIYGTSSRATGIPDRFSGSGSGTDFSLTISRLEPEDFAVFYCQQYAGLPTFGPGTKVDIK
For the molecule B3, the “% Kill” value in data set [1] (PC3/hPRLR, Table 18) is 83%; in data set [2] (MCF7/ATCC, Table 18) it was 71%; in data set [2] (MCF7/ATCC, Table 20), 70%; in data set [3] (Table 18), 81%; in data set [3] (Table 20), 90%; in data set [7] (Table 19), 100%. Moreover, in data set [5] (Table 19), the “% Kill” value is listed as 90%. The IC50 in data set [1] (PC3/hPRLR, Table 18) was found to be 0.3 nM; in data set [2] (MCF7/ATCC, Table 18) it was 90 nM; in data set [2] (MCF7/ATCC, Table 20), 150 nM; in data set [3] (Table 18), 0.1 nM; in data set [3] (Table 20) it was 0.3 nM; in data set [7] (Table 19) it was 85 nM. In addition, the IC50 in data set [5] (Table 19) turned out to be 1 nM.

B4: H1H6765P-mc-VC-PAB-MMAE (conjugate)
VH: EVQLVESGGGVVRPGGSLRLSCVGSGFSFDDHGMNWVRQGPGKGLEWVSGFNWNGGSTNYAESVKGRFTISRDNARNSLFLQMNSLRAEDTALYYCVRGRSGWFNDAFDVWGPGTMVTVSS
VL: EIVLTQSPGTLSLSPGERATLSCRASQTINSNYLAWYRQKPGQTPRLLIYGTSSRATGIPDRFSGSGSGTDFSLTISRLEPEDFAVFYCQQYAGLPTFGPGTKVDIK
Regarding B4, the “% Kill” value in data set [1] (PC3/hPRLR, Table 18) was found to be 85%; in data set [2] (MCF7/ATCC, Table 18), 38%; in data set [2] (MCF7/ATCC, Table 20), 40%; in data set [3] (Table 18), 86%; in data set [3] (Table 20), 90%; in data set [5] (Table 19), 90%. The IC50 in data set [1] (PC3/hPRLR, Table 18) was found to be 0.4 nM; in data set [2] (MCF7/ATCC, Table 18) it was 150 nM; in data set [2] (MCF7/ATCC, Table 20), 150 nM; in data set [3] (Table 18) it was 0.2 nM; in data set [3] (Table 20), 0.2 nM; in data set [4], 150 nM. Further, in data set [5] (Table 19), the half-inhibitory concentration (IC50) turned out to be 1 nM.

B5: H1H6762P-DM1 (conjugate)
VH: QVQLVESGGGVVQPGRSLRLSCAASGFTFSHYGMVWVRQPPGKGLEWVALISFDGTTKYYADSVKGRFTISRDNSKNTLYLQMNSLRAEDTAVYFCVGAIAAAAFDLWGRGTLVTVSS
VL: EIVMTQSPATLSVSPGERATLSCRASQSVSSDLAWYQQKPGQAPRLLIYSASARATGIPARFTGSGSGTDFTLTISSLQSEDFAVYYCQQYNNWPMYTFGQGTKLEIK
On to B5, for which the “% Kill” value in data set [1] (PC3/PRLR, Table 11, 3 days) is listed as 66%; in data set [2] (MCF7, Table 12, 3 days), 64%; in data set [3] (Table 12, 3 days), 83%; in data set [5] (Table 12, 3 days) it was 80%. Also, the IC50 came to 0.98 nM in data set [1] (PC3/PRLR, Table 11, 3 days); 110 nM in data set [2] (MCF7, Table 12, 3 days); 0.46 nM in data set [3] (Table 12, 3 days); 100 nM in data set [7] (Table 11, 3 days); 12.6 nM in data set [5] (Table 12, 3 days). Further, in data set [6], the “Payload:Antibody Molar Ratio (MS)” value is given as 2.9.

B6: H1H6975P-DM1 (conjugate)
VH: EVHLVESGGGLVQPGGSLRLSCAASGFTFSSYEMNWVRQTPGKGLEWISHISSRSVIIYYADSVKGRFTISRDNAKNSLFLQMNSLRAEDTAVYFCAGITIFGIPEYWGQGTLVTVSS
VL: EIVLTQSPATLSLSPGERATLSCRASQSVSSYFAWYQQKPGQAPRLLIYDASSRATGIPTRFSGSGSGTDFTLTISSLEPEDFAVYYCQQRSSWPITFGQGTRLEIK
Take B6: in data set [6], the “Payload:Antibody Molar Ratio (MS)” value was found to be 3.4 and the “Payload:Antibody Molar Ratio (UV)” value stood at 3.0.

B7: H1H6953N-SMCC-DM1 (conjugate)
VH: EVQLLESGGGLVQPGGTLRLSCAASGFTFSAYAMSWVRQAPGKGLEWVSSINVRAGDTYYADSVKGRFTISRDNSKNTLFLLMNSLRAEDTAAYYCAKARYSSNWGFDFWGQGTLVTVSS
VL: DIVMTQSPDSLTVSLGARTTINCQSSQTILHSSNNHNYLAWYQQKPGLPPKLLIYWSSTRESGVPDRFSGSGSGTDFTLTISSLQAEDVAIYYCQQYSNTPYTFGQGTKLEIN
With B7, the “% Kill” value was 83% in data set [1] (PC3/hPRLR, Table 18); 70% in data set [2] (MCF7/ATCC, Table 18); 70% in data set [2] (MCF7/ATCC, Table 20); 80% in data set [3] (Table 18); 80% in data set [3] (Table 20); 90% in data set [7] (Table 19). Further, the “% Kill” value in data set [5] (Table 19) was determined as 100%. The IC50 is 0.4 nM in data set [1] (PC3/hPRLR, Table 18); 80 nM in data set [2] (MCF7/ATCC, Table 18); 90 nM in data set [2] (MCF7/ATCC, Table 20); 0.1 nM in data set [3] (Table 18); 0.3 nM in data set [3] (Table 20); 90 nM in data set [4]. For the same molecule, the IC50 in data set [7] (Table 19) is 100 nM; in data set [5] (Table 19) it was 1.5 nM.
